The results in this text go back to patent US20070065429A1 (Biogen, published 2007).

The target of one assay is T1, AP-Aβ (UniProt P05187 23-511; P05067 672-699).
T1 construct: Fusion of alkaline phosphatase and Aβ(1-28); The range 1-28 is Aβ numbering; also called AP-Aβ(1-28); soluble AP-Aβ(1-28)
The experiment in a line: AP fusion binding to COS cells expressing NgR, saturation.

For another assay, the target named is T2, Fluo-Aβ42 (UniProt P05067 672-713, 'Fluo' label (kind and position not stated)).
T2 construct: also called fibrillogenic Aβ42 peptide
The experiment in a line: Fluo-Aβ42 incubated 2 h at 4° C. with SKNMC cells expressing human NgR-1.

T1 sequence (P05187 other isoform, or with tags, fused parts or gaps): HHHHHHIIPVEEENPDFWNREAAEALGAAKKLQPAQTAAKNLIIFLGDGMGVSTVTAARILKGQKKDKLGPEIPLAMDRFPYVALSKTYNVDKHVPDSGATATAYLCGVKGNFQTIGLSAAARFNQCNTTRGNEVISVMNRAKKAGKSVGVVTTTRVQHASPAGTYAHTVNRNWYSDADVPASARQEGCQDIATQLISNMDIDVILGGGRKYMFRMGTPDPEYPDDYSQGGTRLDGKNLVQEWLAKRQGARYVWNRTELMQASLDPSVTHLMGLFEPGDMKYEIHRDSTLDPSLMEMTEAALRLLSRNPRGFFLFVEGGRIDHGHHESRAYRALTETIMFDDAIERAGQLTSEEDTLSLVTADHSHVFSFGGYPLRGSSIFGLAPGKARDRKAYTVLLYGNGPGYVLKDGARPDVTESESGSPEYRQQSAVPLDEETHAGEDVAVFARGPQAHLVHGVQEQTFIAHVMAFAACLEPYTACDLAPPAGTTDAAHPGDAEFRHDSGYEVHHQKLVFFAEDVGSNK

B1: NgR expressed in COS cells (receptor)
chain: CPGACVCYNEPKVTTSCPQQGLQAVPVGIPAASQRIFLHGNRISHVPAASFRACRNLTILWLHSNVLARIDAAAFTGLALLEQLDLSDNAQLRSVDPATFHGLGRLHTLHLDRCGLQELGPGLFRGLAALQYLYLQDNALQALPDDTFRDLGNLTHLFLHGNRISSVPERAFRGLHSLDRLLLHQNRVAHVHPHAFRDLGRLMTLYLFANNLSALPTEALAPLRALQYLRLNDNPWVCDCRARPLWAWLQKFRGSSSEVPCSLPQRLAGRDLKRLAANDLQGCAVATGPYHPIWTGRATDEEPLGLPKCCQPDAADKASVLEPGRPASAGNALKGRVPPGDSPPGNGSGPRHINDSPFGTLPGSAEPPLTAVRPEGSEPPGFPTSGPRRRPGCSRKNRTRSHCRLGQAGSGGGGTGDSEGS
B1: the equilibrium dissociation constant (Kd) in the assay with AP-Aβ was found to be 60 nM.

B2: human NgR-1 expressed on human SKNMC cells (receptor, UniProt Q9BZR6 27-447, looked up)
chain: B1 chain
notes: whole, on cells
Consider B2, for which the binding result with Fluo-Aβ42 is listed as “binds”.

In general, Kd refers to the equilibrium constant for the complex coming apart.
